Patent US20200062804A1 (ADRX, published 2020)
Several values for one entry are separate records, joined by “and”; a condition that tells them apart may be missing. Equal entries are not always repeated. Non-standard residues stand in square brackets, D forms with d. No end group written: not given here. hArg = N=C(N)NCCCC[C@H](N)C(=O)O; NMeK = CN[C@@H](CCCCN)C(=O)O; Phg = N[C@H](C(=O)O)c1ccccc1

Biological target: T1, Nat1 (LTIITLE) (also: TFA salt)
T1 peptide: LTIITLE
Test: cell-based or functional assay

Going from WTIRYYK to [dF][dW][dR][dW][dH][dR] [fwrwhr], the “IC50, Thiofiavin T aggregation assay” value falls from 203 nM to 88 nM (2.3-fold).

LRIRYWK and I[hArg]I[hArg]RYR [Ile-homoArg-Ile-homoArg-Arg-Tyr-Arg] are within 1.5-fold of each other in “IC50, Thiofiavin T aggregation assay” value: 36 nM for the first, 30 nM for the second.

IRIRRY and LRLRHYR are within 1.5-fold of each other in “IC50, Thiofiavin T aggregation assay” value: 205 nM for the first, 146 nM for the second.

[dF][dW][dR][dW][dA][dR][dR] [fwrwarr] and LRIRHYT are within 1.5-fold of each other in “IC50, Thiofiavin T aggregation assay” value: 176 nM for the first, 182 nM for the second.

First: [dH][dL][dR][dY][dH][dR][dK] [hlryhrk]
Second: RFYRYLR
The “IC50, Thiofiavin T aggregation assay” value of the first is 1.8-fold higher: 192 nM for the first, 107 nM for the second.

LYIRLTH and [dH][dQ][dR][dY][dY][dW][dR] [hqryywr] are within 1.5-fold of each other in “IC50, Thiofiavin T aggregation assay” value: 192 nM for the first, 138 nM for the second.

YRLRYVR and LYIRTLH are within 1.5-fold of each other in “IC50, Thiofiavin T aggregation assay” value: 175 nM for the first, 203 nM for the second.

Compared with FRIRRYR, [dF][dF][dR][dF][dH][dR][dR] [ffrfhrr] is 1.8-fold lower in “IC50, Thiofiavin T aggregation assay” value: 185 nM for the first, 104 nM for the second.

First: LTIRYYK
Second: IRLRRYR
The “IC50, Thiofiavin T aggregation assay” value of the first is 1.6-fold lower: 93 nM for the first, 153 nM for the second.

First: [dH][dW][dR][dY][dH][dR][dR] [hwryhrr]
Second: LFIKYHR
The “IC50, Thiofiavin T aggregation assay” value of the first is 1.5-fold lower: 139 nM for the first, 210 nM for the second.

[dR][dI][dR][dW][dY][dW][dK] [rirwywk] and [dS][dF][dW][dY][dK][dR][dR] [sfwykrr] are within 1.5-fold of each other in “IC50, Thiofiavin T aggregation assay” value: 110 nM for the first, 116 nM for the second.

Compared with [dR][dL][dH][dW][dK][dH][dH] [rlhwkhh], [dR][dQ][dW][dY][dH][dW][dR] [rqwyhwr] is 1.6-fold lower in “IC50, Thiofiavin T aggregation assay” value: 215 nM for the first, 132 nM for the second.

First: LVIRYHR
Second: [dL][dW][dR][dW][dY][dR][dR] [lwrwyrr]
The “IC50, Thiofiavin T aggregation assay” value of the first is 1.9-fold lower: 101 nM for the first, 194 nM for the second.

First: [dF][dF][dR][dF][dH][dH][dR] [ffrfhhr]
Second: IRI[hArg]RYR [Ile-Arg-Ile-homoArg-Arg-Tyr-Arg]
The “IC50, Thiofiavin T aggregation assay” value of the first is 3.8-fold higher: 151 nM for the first, 40 nM for the second.

[dY][dQ][dY][dY][dY][dQ][dR] [yqyyyqr] and LYIKYHR are within 1.5-fold of each other in “IC50, Thiofiavin T aggregation assay” value: 118 nM for the first, 148 nM for the second.

First: [dH][dL][dR][dI][dW][dR][dN] [hlriwrn]
Second: LRIYHHK
The “IC50, Thiofiavin T aggregation assay” value of the first is 1.6-fold lower: 97 nM for the first, 152 nM for the second.

Compared with [dK][dY][dR][dW][dY][dR][dH] [kyrwyrh], [dQ][dI][dR][dY][dF][dR][dR] [qiryfrr] is 1.9-fold higher in “IC50, Thiofiavin T aggregation assay” value: 87 nM for the first, 167 nM for the second.

First: [dS][dW][dW][dF][dR][dH][dR] [swwfrhr]
Second: [dL][dW][dR][dR][dY][dH][dR] [lwrryhr]
The “IC50, Thiofiavin T aggregation assay” value of the first is 1.7-fold higher: 187 nM for the first, 108 nM for the second.

YRLRYLR and ARIRRYR are within 1.5-fold of each other in “IC50, Thiofiavin T aggregation assay” value: 99 nM for the first, 144 nM for the second.

[dR][dQ][dH][dY][dR][dW][dR] [rqhyrwr] and [dY][dQ][dY][dY][dF][dW][dR] [yqyyfwr] are within 1.5-fold of each other in “IC50, Thiofiavin T aggregation assay” value: 210 nM for the first, 181 nM for the second.

[dR][dW][dR][dW][dH][dH][dR] [rwrwhhr] and [dH][dW][dR][dW][dY][dW][dK] [hwrwywk] are within 1.5-fold of each other in “IC50, Thiofiavin T aggregation assay” value: 156 nM for the first, 159 nM for the second.

LYIRYTH and LRI[NMeK]YHR [LRI(N-Me)KYHR] are within 1.5-fold of each other in “IC50, Thiofiavin T aggregation assay” value: 180 nM for the first, 125 nM for the second.

LTIRLWH and TRIYRYK are within 1.5-fold of each other in “IC50, Thiofiavin T aggregation assay” value: 198 nM for the first, 213 nM for the second.

YTRITYH and [dY][dQ][dW][dR][dY][dR][dR] [yqwryrr] are within 1.5-fold of each other in “IC50, Thiofiavin T aggregation assay” value: 150 nM for the first, 191 nM for the second.

Compared with LRIRFFR, [dQ][dF][dR][dM][dH][dH][dR] [qfrmhhr] is 2-fold higher in “IC50, Thiofiavin T aggregation assay” value: 90 nM for the first, 181 nM for the second.

[dR][dW][dH][dW][dH][dW][dR] [rwhwhwr] and [dR][dW][dR][dI][dL][dQ][dK] [rwrilqk] are within 1.5-fold of each other in “IC50, Thiofiavin T aggregation assay” value: 145 nM for the first, 199 nM for the second.

[dR][dF][dE][dF][dR][dH][dR] [rfefrhr] and [dR][dW][dY][dW][dH][dH][dR] [rwywhhr] are within 1.5-fold of each other in “IC50, Thiofiavin T aggregation assay” value: 117 nM for the first, 115 nM for the second.

First: [dR][dI][dH][dY][dF][dR][dR] [rihyfrr]
Second: IR[Phg]RRYR [Ile-Arg-Phg-Arg-Arg-Tyr-Arg]
The “IC50, Thiofiavin T aggregation assay” value of the first is 2.9-fold lower: 43 nM for the first, 124 nM for the second.

IRIRHYRP and [dY][dQ][dW][dR][dH][dW][dR] [yqwrhwr] are within 1.5-fold of each other in “IC50, Thiofiavin T aggregation assay” value: 142 nM for the first, 112 nM for the second.

Going from IRIRRAR to LFRYYQK, the “IC50, Thiofiavin T aggregation assay” value rises from 37 nM to 100 nM (2.7-fold).

In the case of [dF][dW][dR][dW][dH][dR][dR] [fwrwhrr], the “IC50, Thiofiavin T aggregation assay” value is reported as 147 nM and 164 nM.
